We go through 1 protein from article PMC7525064, “Transcriptome Analysis of Different Tissues Reveals Key Genes Associated With Galanthamine Biosynthesis in Lycoris longituba” (Frontiers in Plant Science, 2020).

Substrate in this series: Oc1ccc(CCNCc2ccc(O)c(O)c2)cc1
Kind of series: purified protein. In kind it is biochemical, Lycoris longituba. Particulars: 200 μM AdoMet, 50 μM-2 mM norbelladine, 30 mM potassium phosphate pH 8.0, 30°C, 2 h.

B1: LlOMT (Lycoris longituba O-Methyltransferase) (Lycoris longituba) (protein)
chain: MGASQDDYALIHKNILHSEDLLKYILETSVYPREHEQLKGLREVTEKHEWSMALVAADEGLFLSMLLKLMNAKRTIEIGVYTGYSLLTTALALPEDGKITAIDVNKSYFEIGLPFIQKAGVEHKINFIESEALPVLDQMLQEMKEEDLYDFAFVDADKPNYANYHERLVKLVRVGGAIVYDNTLWFGTVAFPEYPGLHPEEEECRVSFRNLNKLLAADPRVEISQVSIGDGLTICRRLY
The term Km denotes the concentration of substrate that gives half-maximal velocity. As to B1, the Km is 317 ± 17 µM.
